Results from the DeepSol protein solubility set.

Test: soluble on expression in E. coli; label from the status in PepcDB or PDB records

| Sequence | soluble on expression in E. coli |
| --- | --- |
| MGKLALAAKITHVPSMYLSELPGKNHGCRQGAIDGHKEISKRCREMGVDTIIVFDTHWLVNSAYHINCADHFEGVYTSNELPHFIRDMTYNYEGNPELGQLIAEEALKLGVRAKAHNIPSLKLEYGTLVPMRYMNEDKHFKVVSISAFCTVHDFADSRKLGEAILKAIEQYDGTVAVLASGSLSHRFIDDQRAEEGMNSYTREFDRQMDERVVKLWREGQFKEFCNMLPEYADYCYGEGNMHDTVMLLGMLGWDKYDGKVEFITELFPSSGTGQVNAVFPLPA | not soluble |
| MGKRLLDKLWERHVVTTNENGLDLLYIDLHLVHEVTSPQAFEGLRLTNRTVRRPDLTFATMDHNIPTKDVWNITDRIAKQQLDTLRENCKQFQVPLADIGDEEQGIVHVIGPELGLTQPGKTIVCGDSHTATHGAFGALAFGIGTSEVEHVLATQTLWQRKPKAMGIELKGKLQKGVYAKDIILHLLSKYGVAVGTGYVMEFYGETIGTMEMEERMTLCNMAIEGGAKAGIIAPDEKTFAYVKGRKYAPRDYETFEKKWFELYTDADAIYDLHISIDVTDLAPYVTWGTNPSMGVRIDEKLPEKHDVNDERAFSYMGLIPGQSTYDIPVQHVFIGSCTNSRLSDLEIAASVVKGRKVKEGVRALVVPGSKRVRDAAMQKGLHHIFEEAGFEWREPGCSMCLGMNPDQVPEGEHCASTSNRNFEGRQGKGARTHLVSPAMAAAAALYGHFVDIRKESYDGAISYS | not soluble |
| MGLKAINTSLSKNDLAHLGAGEVGYIRKMRSEEVSRCFPEAPEMGPGIDLWALFGADGTPILLTDNRSSTFFKAAEDDLRTVSLH | not soluble |
| MGLLDLIGRKRARDKPQNSYEGQDFSYLFGRTTSGENVDEFKTMQTTAVYACVRVLAEAVASLPIHIYERTENGKEKKLDHPLYFLLHDEPNPEMSSFIFRETIMSHLLIWGNAYVQIIRDKSGMVSLLLKQKASVLIRKLLLIIWQRMP | not soluble |
| MGLPKSAYKKLLIDCPTRVINKNCAQRVKDVSPLITNFEKWSDKRKKLYFKDEEEMVGQFHLENFNLKNNLYGRLLASPMRAEKISKLKSCRELLIPLKVVPSTGKDQHADKDKLKLVPTLDYSKSYKSSYVLNSASIVQDNLAAATSWFPISVLQTSTPKSLEVDSSTFITEYNANLHAFIKARLSVIPNVGPSSINRVLLICDKRKTPPIEIQVVSHGKGLPITQSVFNLGYLHEPTLEAIVSKDAVTNGIYLDADNDKDLIKHLYSTLLFHSVN | not soluble |
| MGLQTYNAKRSFDKTPEPKGTKAEKPGSSFVIQKHDARRLHYDFRLEMDGVLKSWAVTRGPSLDPEDKRLAVHVEDHPLSYGDFEGVIPKGQYGGGTVIVWDRGIWQPIGDAGKGYRKGHLEFELEGEKLKGRWHLVRMHGKPGESRENWLLIKGDDEEARHLEHHHHHH | soluble |
| MGLVIYDTLARRKVPFEPAVPGHVGIYVCGPTVYADPHLGHARGPVVYDVLRRYLLHKGYKVRFVSNITDVGHLTDDADEGEDKIVRRAKLERLEPMEVAEKYTWSYFDAMQALNVLRPSIAPRASGHIPEMLELTERLLARGVAYERKGSVYFRVRSFPEYGKLSGKRLEELRAGARVEVREEKEDPLDFALWKAAEPGHIMRWKSPWGEGYPGWHIECTAMSLKYLGEGFDLHAGGIDLQFPHHECEIAQAEAAGFRFARHWMHHNHVLLEGEKMAKSTGNLVLLHDLLEAHEPMALRFYLLQTHYRSPMDFTWEGLESAKRGYGRLLHAYREVRGRKKTAPPGTTPELERALDALEKAFMEAIEDDLSTPEALAALFAFLPELHKLLPEAKAESLARAEAVFHTLGEGILGLFPERVLEERVSGPLLEGLIALLLELREEARRAKDYEKSDLIRERLRALGVIVEDTKEGPRWRLER | soluble |
| MGLWFEEGAEERQVLGPFREFLKAEVAPGAAERDRTGAFPWDLVRKLAEFGVFGALVPEAYGGAGLSTRLFARMVEAIAYYDGALALTVASHNSLATGHILLAGSEAQKEAFLPKLASGEALGAWGLTEPGSGSDAAALKTKAEKVEGGWRLNGTKQFITQGSVAGVYVVMARTDPPPSPERKHQGISAFAFFRPERGLKVGRKEEKLGLTASDTAQLILEDLFVPEEALLGERGKGFYDVLRVLDGGRIGIAAMAVGLGQAALDYALAYAKGREAFGRPIAEFEGVSFKLAEAATELEAARLLYLKAAELKDAGRPFTLEAAQAKLFASEAAVKACDEAIQILGGYGYVKDYPVERYWRDARLTRIGEGTSEILKLVIARRLLEAV | soluble |
| MGLYLKGPSYKQVARILGMSHYRMKMLAMKKREVDDTVTKINGERRYLWAAIDVESREILAILEHHHHHH | not soluble |
| MGMDQSRLMSGAAGGALVLMGLKKRGVLGLLMTVGGGYLAYKAATGKDPVMEAAGLTGSAGAAKPIFVEHSIVIDRPAQQVYDYWRKLENLPQIMSHLESVTVLDDKRSRWVAKAPLGTHVEWEAEVVNDKPGERIGWHSLPGATVDNAGSVQFESLPDDKTRVHVALSYRPPAGPLGAAVAKLFGEEPSQQIAEDLQKFKATFEGLEHHHHHH | soluble |
| MGMIVFVRFNSSYGFPVEVDSDTSILQLKEVVAKRQGVPADQLRVIFAGKELPNHLTVQNCDLEQQSIVHIVQRPRRR | soluble |
| MGMKFLNKKGWHTGSLRNIETVWKAEQKQEAEQKKLEELRLQILQERERSEFRALQEQAGLIPRQERLEFLYDSGLAVGKGSASGSGVSFQKEEQPLAKSEAGSSASEKPDQSAPGALFEEKAQSANDSWRKLHSDPLLLIRQREQEALAKIKNNPVKMALIRKSVEEKGKGKDGDTKEHKKKHKRKSGKHQKQSSSRQRSDSEEDSGEENNGRKSHHQKTSGTHDRHYERPRSDLEDESKGRESRDRHYEKRRSELDDGHKRRERHDTHYERRRSEMDDESKRRESRDNHYERRRSDLDDESKRRESHDKHFERQRSDLDDEYKRRESQDKRRRSDIDDEPKRRDARPNEKYRNRSPKGGVERENLKSYGQEDKKRKAEDLDSGKPNEYQNRRRKGGSKLSEEERAARLKQMQMDAEVHEEQRWTRLKKADETDAVEADKNKVSTGKSFLDDANKSVYGVEKGGSSTIEESVRRRSYYSQRGTAAEGNAFRR | not soluble |
| MGNLFCCVLVKQSDVAVKERFGKFQKVLNPGLQFVPWVIGDYVAGTLTLRLQQLDVQCETKTKDNVFVTVVASIQYRVLADKASDAFYRLSNPTTQIKAYVFDVIRACVPKLNLDDVFEQKNEIAKSVEEELDKAMTAYGYEILQTLIIDIEPDQQVKRAMNEINAAARMRVAASEKAEAEKIIQIKRAEGEAESKYLSGLGIARQRQAIVDGLRDSVLGFAGNVPGTSAKDVLDMVMMTQYFDTMRDIGATSKSSAVFIPHGPGAVSDVAAQIRNGLLQANNAS | soluble |
| MGNQAGSKTKLVIIQGPTASGKSELAVRLAEACGGDVVNADSMQVYRGMDIGTAKPSPELVARVPHHLYDIVDPDVNFTAADYRREAGRVITEIHSRGKRPILVGGTGLYIKTLIGGLAPSPGADDTIRAELEEDARSEGAAALHDRLAQVDPAAAARLHPNDRVRIVRALEVFLMTGKPLSEFQEEHRFADEPYDCLKLGISVERDDLYRRINERVNRMFAEGFVEEVSGLLNAGYSPDLKAMGAIGYKEVCAYLAGTCSLDEARELVQRNTRRYAKRQLTWFRKDPAIKWVEYPANFDSISTIAMKFFGLEHHHHHH | not soluble |
| MGNRLSKIYTRTGDRGETGLAGGRRVPKSHPRIEAIGAVDELNSQLGLLLAELLEARGAHPGLEEIVQALAPVQHRLFDLGGELAMPEYRALDETEVARLESCIDRWNDELGPLKNFILPGGSRPVAQAHVCRSLARSAERRCQALDQEETLEGVGLRYLNRLSDLLFVAARAIARRQGVAEILWEAAAKPD | not soluble |
| MGNTSSERSGGEKTHRRESRSGKDGTRPKILMDSAEDGDLFQSDDAKEFLAWRQDQESDSKTPLEERPTVFRWKGPGKEIYLSGSFNNWATKIPLNKSHNNFVAIIDLPEGEHQYKFYVDGHWTLDPKEPVVTNKSGVVNNVIKVRKTDFEVFDALKTDSEKCADMSDLSSSPPGPYHQDPYSTKSEDKLRSPPILPPHLLQVLLNKDTGISCDPTLLPEPNHVMLNHLYALSIKDGVMVLSATHRYKKKYVTTLLYKPI | not soluble |
| MGNWITSTFLRFDLFQRHQPNRFLEYTRVQHSNQSPAYSVRTAAEIVAHQRMKPNHSNDSDTDFSSDDEGCPKMTPHEEQQMFEREQHIAFSGRCHIGDPESCTQLRNEINSRCGPRPSTSNNMEFILNRDLQKRGTSISNPRTVARVLNSHLPNQKRRVDRVATKSFCTQYIQNGTKIVVASQDEKIRFYQRNPDKSKYRSKYMKSDELRVDQCGWSILDTAISLNGDLIAYGTWKDAVFVGKLDFTERQNITWFPIDLNGEPGRDHCAVFCVKFSDSSEQIVCGTSQYSIHVFDVEQRRRIRTIVNAHEDDVNSVCFADLGSNLIYSAGDDGLVKVWDKRAWSDGDVEPVGVFAGHRDGVTHVDSRQDERYLLSNSKDQTIKVWDLRKFSNMSGVEATRACVQSQHWDYRWQPAPPGLCQPVAGDTSVMTLRGHSVLHTLVRANFSPESTGRRYIYTGCARGEVVVYDIMSGTVSRRLKGHTAVVRECDWHPTENEIVSSAWDGVTTVWTWDERQEGVIAPYDHPNISQFGDEDSCDELFQPVKKQCRRQRKTMSSRGHPCSSSSISQN | not soluble |
| MGPAQIWRLKFSNDKLTWEQECTFERSQYYDSIICACVYRFYHGAPPVVLFGTYSGRILQYELPPPTKFVRKSMKDVPKCGKPINLLINHGIYFIRQTGFNEIASITPFGLYILRENFHASKRLGKFGQFWLNRLQNRLLVKNPGSIDDFSAAEIRRLSIDSAQEQMRPRIGSTVSQLTFRYSDDDTLLLEKGGEKRRQTLGARDFQVSPRFYSRKIGKKIRFFLKFFREKLAGIENFRQIGKLAKMKISGKPANCQNFLPISNRGKLRKNFFFSENNDKF | not soluble |
| MGPDTTSERVSEDLMQAVTCLKRVMVGMKSNGTDYVQEQTPSNSTTVICTLVKITGALERCIESNKAMNDVLNGKMKCTTCGATSVGLLSDCHDSATSTTTTVSHRSSEEPPRRKPSAAGGDHDDEELECSSIESRSIRSVSSSVHTSAEDDETNQTMMVPTDVADVINAIVAGTNGSSNSNTTSSSKSPQEEEEEHDLVMKSILSTTTSTSNTKLELSEKLENPLQDTALLDQFLQASLLGQTPTVTPASEENEEDKEQNAVLTSFLQILFANQQAGNAILDAGSSENDGSTSSSQPSPPADPTASLDSLAMFESLLAESMNGNVLDANTSSADQKAAARKRKSTPMKVPKSENGAGYICPMDGCNKVFKEKGSVHRHFVTHIGMRFNCDKCKASYTQKHALMLHQKIHANPDAYQCRGCGTNYTTQNGLRLHRQRNPACMEVSNALEFNTSLNTSISEALSGPLSKNSSPTKQMVSAP | not soluble |
| MGPNHPCGYLPGRDARFTYVSPAYPLSPQSYRGLLEEGFRRSGNWVYRPCCIGCSACLPVRLPVHDFRLTRSHRRVIKRNADIDIRVSVARFDERQFQLYVRYLAARHPTDTPVSRDDYWSFVSSSWAQTRFVEFRSYSELIGVAVVDHVPGALSAVYTFFDPDAAERSPGSLAILWQILEARRLGREWLYLGYWIGGCRKMEYKARYRPLEALIANRWRRFQVDEPLTSSVLLEHHHHHH | soluble |
| MGPNPMKMYPIEGNKSVQFIKPILEKLENVEVGEYSYYDSKNGETFDKQILYHYPILNDKLKIGKFCSIGPGVTIIMNGANHRMDGSTYPFNLFGNGWEKHMPKLDQLPIKGDTIIGNDVWIGKDVVIMPGVKIGDGAIVAANSVVVKDIAPYMLAGGNPANEIKQRFDQDTINQLLDIKWWNWPIDIINENIDKILDNSIIREVIWKK | soluble |
